# B1: RUCILP2: 87 amino acid irisin-like polypeptide cleaved from the Ruminococcus torques FNDC5-like protein RUMTOR_00181; recombinant, 6-His-tagged from E. coli (protein)
# chain: APVDVKVSEITETSAKASWKNAADGKEAAGYNVYVDGVKLNKELLTEASCGLTNLKAETTYFVEVTAVDAAGNESVKSEKVTFKTLK
# modifications: 6-His tag; Ruminococcus torques
# notes: 87 amino acid irisin-like polypeptide cleaved from the Ruminococcus torques FNDC5-like protein RUMTOR_00181; recombinant, 6-His-tagged from E. coli
# Test: Targeted proteomics (PRM) assay for RUCILP2 in human plasma
# Conditions: measured from 6 individuals
# Source text: FIG. 25. Representative chromatogram showing the presence of RUCILP2 in fasting human plasma. Parallel reaction monitoring (PRM) elution profile for y-ions for the unique tryptic RUCILP2 peptide (EAAGYNVYVDGVK) found in human plasma samples. Top panel is PRM trace for the fragmental ions (box a) of light peptide found in human plasma sample, bottom panel is PRM trace for the fragmental ions (box b) of 10.0 femtomole of heavy isotope labelled (Lys ^13C6, […]) synthetic peptide (internal standard, IS) spiked into fractionated human plasma samples. Retention times for each peptide are labeled on the x axis, and y axis represents the relative intensity for each fragmental ion peak. One milliliter of human plasma sample was depleted of albumin and immunoglobulin G following deglycosylation. Deglycosylated plasma was resolved by SDS-PAGE and molecular mass regions corresponding to completely deglycosylated RUCILP2 (10-15 kDa) was excised and subsequently digested in-gel overnight before LC-MS/MS detection. Based on comparative analysis on relative intensities of fragmental ions found in processed human plasma and fragmental ions found in plasma spiked with heavy isotope labelled internal standards, we estimate the inter-individual concentrations of RUCILP2 in human plasma vary between 10 and 100 pg/ml. […]
molecule,measurement,value
B1,inter-individual concentration interval of RUCILP2 in human plasma,10 to 100 µg/mL
